A value given as a limit tells only on which side of the number the result lay.

This assay addresses endogenous β-actin of the bovine neutrophil plasma membrane (bovine) (UniProt P60712). As to the kind of experiment: control of the co-immunoprecipitation, protein A-agarose beads.

Regarding “nonspecific rabbit IgG (polyclonal serum or antibody)”, the β-actin co-precipitated relative to the anti-pepA immunoprecipitate was less than 5%.

For the origin of these results see patent US5985608.
